Reference: paper PMC11417369, “DNA sequence and chromatin differentiate sequence-specific transcription factor binding in the human malaria parasite Plasmodium falciparum”

B1: CACACA_site1127 (dsDNA)
DNA 1: TATTTTTCCATATGCACACACACCGTATATATAATA
DNA 2: TATTATATATACGGTGTGTGTGCATATGGAAAAATA
B2: CACACA_site656 (dsDNA)
DNA 1: ACAATATCTAGATACACACACATATCTCTCAATCTA
DNA 2: TAGATTGAGAGATATGTGTGTGTATCTAGATATTGT
B3: CACACA_site1293 (dsDNA)
DNA 1: CACACCCACAAAAACACACACAAAGGTGTTCTTATA
DNA 2: TATAAGAACACCTTTGTGTGTGTTTTTGTGGGTGTG
B4: CACACA_site4122 (dsDNA)
DNA 1: AAAACAAACACATTTACACACATAAATAAATCAATT
DNA 2: AATTGATTTATTTATGTGTGTAAATGTGTTTGTTTT
B5: CACACA_negctrl_site1568 (dsDNA)
DNA 1: TTTTTTATAAATCAAATGAAAAATAAACTATTCAGA
DNA 2: TCTGAATAGTTTATTTTTCATTTGATTTATAAAAAA
B6: CACACA_negctrl_site108 (dsDNA)
DNA 1: TTTTTAATTTAAAAAAATAATATTTTATATTCCGAA
DNA 2: TTCGGAATATAAAATATTATTTTTTTAAATTAAAAA
B7: CACACA_site1322 (dsDNA)
DNA 1: CACGAACACAAACACAAACACACATCATATATATAT
DNA 2: ATATATATATGATGTGTGTTTGTGTTTGTGTTCGTG
B8: CACACA_negctrl_site1706 (dsDNA)
DNA 1: TTACACATATTTTTAATTATTCTGAATTCAAAAAAA
DNA 2: TTTTTTTGAATTCAGAATAATTAAAAATATGTGTAA
B9: CACACA_negctrl_site736 (dsDNA)
DNA 1: TACTTATATTATTTTATTATTAAATTTAAAACGAAA
DNA 2: TTTCGTTTTAAATTTAATAATAAAATAATATAAGTA
B10: CACACA_site3715 (dsDNA)
DNA 1: ATATATATATAATAAACACACAAATAGATATAACAT
DNA 2: ATGTTATATCTATTTGTGTGTTTATTATATATATAT
B11: CACACA_negctrl_site1629 (dsDNA)
DNA 1: TTTTTCTTTCTATTTATCAATATTAAAAAAAAAAAA
DNA 2: TTTTTTTTTTTTAATATTGATAAATAGAAAGAAAAA
B12: CACACA_site8658 (dsDNA)
DNA 1: AACGAAAGAAAAAAAGCACACACAGTTTTGAGCAAT
DNA 2: ATTGCTCAAAACTGTGTGTGCTTTTTTTCTTTCGTT
B13: CACACA_site960 (dsDNA)
DNA 1: TGAATATTTACTTTAGCACACAATTTGTATTTGATT
DNA 2: AATCAAATACAAATTGTGTGCTAAAGTAAATATTCA
B14: CACACA_site5230 (dsDNA)
DNA 1: ATAATATCATCAAACGCACACATACATAAATATATT
DNA 2: AATATATTTATGTATGTGTGCGTTTGATGATATTAT
B15: CACACA_site3128 (dsDNA)
DNA 1: CCACTAATAAATATTACACACATATATATATATATT
DNA 2: AATATATATATATATGTGTGTAATATTTATTAGTGG
B16: CACACA_site4591 (dsDNA)
DNA 1: CACATACAGATATATACACACAAATATATATACTCA
DNA 2: TGAGTATATATATTTGTGTGTATATATCTGTATGTG
B17: CACACA_site9215 (dsDNA)
DNA 1: ATATATATATATATTCCACACACACCCAAAAAAAAA
DNA 2: TTTTTTTTTGGGTGTGTGTGGAATATATATATATAT
B18: CACACA_negctrl_site1701 (dsDNA)
DNA 1: TTTTTTCAATTTTTTTTAAATAAACCACAAAAAAAA
DNA 2: TTTTTTTTGTGGTTTATTTAAAAAAAATTGAAAAAA
B19: CACACA_site841 (dsDNA)
DNA 1: GGCATGACTATCTGCACACATAAAAATAAGAAATAC
DNA 2: GTATTTCTTATTTTTATGTGTGCAGATAGTCATGCC
B20: CACACA_site2704 (dsDNA)
DNA 1: GCCATTGTACCATCCACACACATATATATATGTATA
DNA 2: TATACATATATATATGTGTGTGGATGGTACAATGGC
B21: CACACA_negctrl_site170 (dsDNA)
DNA 1: TTTGTTAAAAATATATTATGAATAAAAATATATTTT
DNA 2: AAAATATATTTTTATTCATAATATATTTTTAACAAA
B22: CACACA_site651 (dsDNA)
DNA 1: ATACATATAGGATGCACACATAATTCAAATACAATA
DNA 2: TATTGTATTTGAATTATGTGTGCATCCTATATGTAT
B23: CACACA_site8515 (dsDNA)
DNA 1: ATAATATATATACAAACACACAATTGCGTCCACATT
DNA 2: AATGTGGACGCAATTGTGTGTTTGTATATATATTAT
B24: CACACA_site3695 (dsDNA)
DNA 1: AAGCTTCATTAATATACACACATATATGCGTATATT
DNA 2: AATATACGCATATATGTGTGTATATTAATGAAGCTT
B25: CACACA_site2284 (dsDNA)
DNA 1: AAAAAAAAAAAAGGCACACAAACATATGTAGACATA
DNA 2: TATGTCTACATATGTTTGTGTGCCTTTTTTTTTTTT
B26: CACACA_site5706 (dsDNA)
DNA 1: CTATTTTGGATGTGTACACATATATATATTTATATT
DNA 2: AATATAAATATATATATGTGTACACATCCAAAATAG
B27: CACACA_negctrl_site8 (dsDNA)
DNA 1: AAATTATATATAATAAATAATTTCTTTTTCTAAAAG
DNA 2: CTTTTAGAAAAAGAAATTATTTATTATATATAATTT
B28: CACACA_site1334 (dsDNA)
DNA 1: ATTACATACACGCGCACACACAAAAAAAAAAAAAAA
DNA 2: TTTTTTTTTTTTTTTGTGTGTGCGCGTGTATGTAAT
B29: CACACA_negctrl_site1118 (dsDNA)
DNA 1: ATTATCAAAAAAAAAAAAAAAAAAAAAAAAAAAAAA
DNA 2: TTTTTTTTTTTTTTTTTTTTTTTTTTTTTTGATAAT
B30: CACACA_site1627 (dsDNA)
DNA 1: AAGAAAAAGATGCGCATACACACAGATGAATAACAA
DNA 2: TTGTTATTCATCTGTGTGTATGCGCATCTTTTTCTT
B31: CACACA_site8178 (dsDNA)
DNA 1: TACATATAAACAATAACACACACCTAGGTACATGGA
DNA 2: TCCATGTACCTAGGTGTGTGTTATTGTTTATATGTA
B32: CACACA_site2254 (dsDNA)
DNA 1: TTTTTTTTTATTATCATGCACACATTTTTTTTTTTT
DNA 2: AAAAAAAAAAAATGTGTGCATGATAATAAAAAAAAA
B33: CACACA_site2529 (dsDNA)
DNA 1: ACCTAAAATAACTACACACACATAAAAAAAAAAAAA
DNA 2: TTTTTTTTTTTTTATGTGTGTGTAGTTATTTTAGGT
B34: CACACA_negctrl_site344 (dsDNA)
DNA 1: TTTTGAATATGGATCTTATATATATTAAATAAATAA
DNA 2: TTATTTATTTAATATATATAAGATCCATATTCAAAA
B35: CACACA_site1139 (dsDNA)
DNA 1: TCTGTTAATATTTATACACACATATATATATATATA
DNA 2: TATATATATATATATGTGTGTATAAATATTAACAGA
B36: CACACA_site8439 (dsDNA)
DNA 1: AGGTGAGCTCAGACTACACACACAAAGAAAAAAATA
DNA 2: TATTTTTTTCTTTGTGTGTGTAGTCTGAGCTCACCT
B37: CACACA_negctrl_site333 (dsDNA)
DNA 1: GAATGAATGATAAATTTTTTTTTCTTTTTTTTTTTG
DNA 2: CAAAAAAAAAAAGAAAAAAAAATTTATCATTCATTC
B38: CACACA_negctrl_site1823 (dsDNA)
DNA 1: TATTTCATCTTATTTTAGGAAAAACTAATATATAAG
DNA 2: CTTATATATTAGTTTTTCCTAAAATAAGATGAAATA
B39: CACACA_site5877 (dsDNA)
DNA 1: TATAGCATATCTCACACACACATAATGAATATTATA
DNA 2: TATAATATTCATTATGTGTGTGTGAGATATGCTATA
B40: CACACA_site3522 (dsDNA)
DNA 1: ATATAAAATAGACACGCACACAAAAAAAAAAAAAAA
DNA 2: TTTTTTTTTTTTTTTGTGTGCGTGTCTATTTTATAT
B41: CACACA_negctrl_site775 (dsDNA)
DNA 1: TTGTATCTTCATTTTATCAGAAAAAAAAAAAAAAAT
DNA 2: ATTTTTTTTTTTTTTTCTGATAAAATGAAGATACAA
B42: CACACA_negctrl_site884 (dsDNA)
DNA 1: TATTAATCTTTTTTTAAACAAAAAATTAAGCAAATT
DNA 2: AATTTGCTTAATTTTTTGTTTAAAAAAAGATTAATA
B43: CACACA_negctrl_site861 (dsDNA)
DNA 1: TTTTAAAAATTAAAAAAATTAAATGTAAAAAAATGA
DNA 2: TCATTTTTTTACATTTAATTTTTTTAATTTTTAAAA
B44: CACACA_site1083 (dsDNA)
DNA 1: CTACACAAGCATTAAACACACAAAAGGGATACTTTG
DNA 2: CAAAGTATCCCTTTTGTGTGTTTAATGCTTGTGTAG

These binders were tested against T1, AP2-LT D1 (Plasmodium falciparum, UniProt Q8IAM1 2520-2577) (assay: gcPBM; about 25 ug protein; PBS, 1% milk, 0.2 mg/ml BSA, salmon testes DNA, 0.03% Triton X-100). Details: tags: N-terminal GST (pGEX-4T-1), kept; label: surface-attached array probe.
T1 sequence: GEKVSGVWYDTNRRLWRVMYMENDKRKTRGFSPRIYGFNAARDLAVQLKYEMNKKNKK

Row | Binder | binding signal
1 | B1 | 9.79 ln median PBM intensity, better of two orientations
2 | B2 | 9.5 ln median PBM intensity, better of two orientations
3 | B3 | 9.62 ln median PBM intensity, better of two orientations
4 | B4 | 9.58 ln median PBM intensity, better of two orientations
5 | B5 | 8.3 ln median PBM intensity, better of two orientations
6 | B6 | 8.25 ln median PBM intensity, better of two orientations
7 | B7 | 9.81 ln median PBM intensity, better of two orientations
8 | B8 | 8.38 ln median PBM intensity, better of two orientations
9 | B9 | 8.39 ln median PBM intensity, better of two orientations
10 | B10 | 9.52 ln median PBM intensity, better of two orientations
11 | B11 | 8.1 ln median PBM intensity, better of two orientations
12 | B12 | 9.6 ln median PBM intensity, better of two orientations
13 | B13 | 9.42 ln median PBM intensity, better of two orientations
14 | B14 | 9.51 ln median PBM intensity, better of two orientations
15 | B15 | 9.47 ln median PBM intensity, better of two orientations
16 | B16 | 9.49 ln median PBM intensity, better of two orientations
17 | B17 | 9.85 ln median PBM intensity, better of two orientations
18 | B18 | 8.15 ln median PBM intensity, better of two orientations
19 | B19 | 9.74 ln median PBM intensity, better of two orientations
20 | B20 | 9.64 ln median PBM intensity, better of two orientations
21 | B21 | 8.37 ln median PBM intensity, better of two orientations
22 | B22 | 9.54 ln median PBM intensity, better of two orientations

Row | Binder | binding signal
23 | B23 | 9.67 ln median PBM intensity, better of two orientations
24 | B24 | 9.46 ln median PBM intensity, better of two orientations
25 | B25 | 9.56 ln median PBM intensity, better of two orientations
26 | B26 | 9.41 ln median PBM intensity, better of two orientations
27 | B27 | 8.42 ln median PBM intensity, better of two orientations
28 | B28 | 9.87 ln median PBM intensity, better of two orientations
29 | B29 | 8.29 ln median PBM intensity, better of two orientations
30 | B30 | 9.7 ln median PBM intensity, better of two orientations
31 | B31 | 9.55 ln median PBM intensity, better of two orientations
32 | B32 | 9.48 ln median PBM intensity, better of two orientations
33 | B33 | 9.65 ln median PBM intensity, better of two orientations
34 | B34 | 8.27 ln median PBM intensity, better of two orientations
35 | B35 | 9.45 ln median PBM intensity, better of two orientations
36 | B36 | 9.69 ln median PBM intensity, better of two orientations
37 | B37 | 8.4 ln median PBM intensity, better of two orientations
38 | B38 | 8.32 ln median PBM intensity, better of two orientations
39 | B39 | 9.72 ln median PBM intensity, better of two orientations
40 | B40 | 9.59 ln median PBM intensity, better of two orientations
41 | B41 | 8.43 ln median PBM intensity, better of two orientations
42 | B42 | 8.28 ln median PBM intensity, better of two orientations
43 | B43 | 8.44 ln median PBM intensity, better of two orientations
44 | B44 | 9.43 ln median PBM intensity, better of two orientations
